Assay results reported in the supplement of paper PMC12042874.
± gives the uncertainty stated by the source.

Assay: amyloid nucleation score (Sup35N fusion, yeast selection) (log enrichment); library NNK2; higher = more nucleation; inactive = no reads after selection
Summary of the method: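 The nucleation score is the log enrichment of output over input reads, calculated with DiMSum and centred on the mode score of non-aggregating sequences. Sequences with under 100 input reads were excluded. Reads came from Illumina sequencing of plasmid inserts from psi-negative yeast expressing Sup35N fused to peptides of 20 random codons, induced 24 hours with 100 μM copper sulfate and grown 7 days at 30°C without adenine and uracil.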

Substance	amyloid nucleation score
VGSFIFLLRCWLSCAIAGVQ	-0.323 ± 0.65
VGSGGKGSMFYGYIELIFM	-0.641 ± 1.1
VGYFLKAMETCVTSLL	inactive
VGYIQGFERTYL	-0.42 ± 0.76
VGYLALQFLVRCMY	inactive
VHAPLLRRPNVLHTKLH	0.112 ± 1.1
VHCREWEIIRMINLSRKQRV	-0.419 ± 0.46
VHDRLRLGWGAYGYPFGVLM	0.027 ± 1
VHLVSLSLNKTLYDFLTGMG	-0.178 ± 0.35
VHVWWANVIRVMYNHVRSDW	0.133 ± 0.34
VHYVFSCCNKLPSANSRWGL	6.718 ± 0.066
VIAGDTQGMSRGWFLGVLPW	inactive
VICRGITVARWSF	3.58 ± 0.065
VIDTCGDVNRSRGQVLSGGV	0.293 ± 0.3
VIFYRSFTVS	3.64 ± 0.053
VIILRTPYVCSHYWSDPTVL	-0.138 ± 0.56
VIKFFNLREQFFVIIMAYGF	inactive
VILMDMYHAGNSAMCLACGN	-0.119 ± 0.49
VILRVIGIIMRDNKFSHDVR	inactive
VIMSGHSNRHWRSGLERMAG	0.823 ± 0.27
VIQNYL	-0.624 ± 0.39
VIRSLSFLSYIWVDKGVGVV	-0.89 ± 0.53
VIRVESCPVYFYLTTRTAGS	0.633 ± 0.8
VIRVLSMLFFSRVLVPVNSK	0.151 ± 0.62
VISCQKPGDIKTYNRVGTTD	-0.35 ± 0.23

Substance	amyloid nucleation score
VISKYDWFK	-0.255 ± 1.1
VIYSELGYHREPVLCG	-0.972 ± 0.49
VIYVPLGKNLKIFSKHSFFG	-0.906 ± 0.76
VKASFS	0.798 ± 0.44
VKEVRLPGTRILGRLAGSFR	inactive
VKFVLQVYYGVPST	0.307 ± 0.27
VKFWYWAVDLDSCVRCGDGA	6.586 ± 0.049
VKHTFLRKFWMHRSIESYGH	-0.111 ± 0.38
VKITGPRWLATIICYMFR	6.47 ± 0.075
VKIYVFSFFMEL	3.7 ± 0.12
VKLIGKITELGKNRMLMLWT	0.429 ± 0.28
VKPWFS	-0.145 ± 1.1
VKRVFGYCFIEGLSKDVFHG	6.351 ± 0.043
VKWACNMLSI	-0.676 ± 0.48
VKWLYTLDSNFVLVFVPCLT	-0.078 ± 0.39
VLAFRFYFAVVLGLMIVYG	-0.16 ± 0.62
VLCFCRDFLFVLIQNPFTFP	inactive
VLCGNSFMNCCSAFRCGSAV	8.923 ± 0.059
VLEITLCG	0.834 ± 0.46
VLFAWSASDVIVV	0.639 ± 0.33
VLFKIIRLRLENIPSSWWVI	0.152 ± 0.32
VLFNKSLLRWSNWLV	0.166 ± 0.26
VLGNGYPD	-0.19 ± 1.1
VLLKLVDLWL	-0.017 ± 0.54
VLMASSLITVSICVPRTWAY	6.172 ± 0.041

Substance	amyloid nucleation score
VLNCNRYFRCSANNIEASES	0.27 ± 0.56
VLNSPVFFHSYRSMVSLM	-0.117 ± 0.3
VLRANGCWLFMLHNLIYLWL	0.172 ± 0.65
VLSENITSLISKCYCFKSHL	6.021 ± 0.038
VLSMDLQVIRSWKICSVSRK	0.799 ± 0.17
VLSRVDQSTGVIGQTGMVAC	0.6 ± 0.17
VLSVGAGKYGLSLISSTTTI	1.28 ± 0.66
VLSVSWYAYCVSMMFIKNWA	0.697 ± 0.19
VLTDSCKFYCELCQLNREVY	0.443 ± 0.36
VLTSNTANIGTLHLINIRFH	8.173 ± 0.026
VLTVN	inactive
VLVFEVPFMFNGAFTMGCIR	7.075 ± 0.067
VLVNKGLTMHFACSYV	0.547 ± 0.81
VLYWCPRDSKTWLSGRLLPM	1.33 ± 0.47
VMDCLMLSNMHLYIVLESKS	5.08 ± 0.061
VMILGVYKNFMLIFELVPVY	-1.01 ± 0.76
VMMNSCNCRSYTLYLL	9.183 ± 0.075
VMNMRLLRANLPWTLAWRVQ	0.122 ± 0.35
VMPGSLCLVRVFFCIMHVLY	inactive
VMRLFIGAGIGRAEL	5.63 ± 0.059
VMWASERWYANETNSHLFSL	-0.105 ± 0.26
VMYLLNFNIMGGLSRIIGGI	6.47 ± 0.049
VMYMASSLHYTEEPSTSIMT	-0.243 ± 0.27
VNASD	2.3 ± 0.25
VNDLWRDSHNYFCTNGGNIR	inactive

Substance	amyloid nucleation score
VNFLGWSLVGKCRFQFWTVR	inactive
VNGPEDPPVHKLMKSTRRSC	2.79 ± 0.088
VNGTTGRSCNKNLDVFNSSI	-0.35 ± 1.1
VNGYIPRNAAVGQYATRALK	-0.032 ± 1.1
VNKQNPGVYFLHRGFFVLSR	-1.57 ± 0.78
VNLLLMVWRGLLLARTGRSG	1.96 ± 0.11
VNNYWNDSCARSLNMGRTGR	0.791 ± 0.27
VNRAR	-0.545 ± 0.63
VNSDYMGIGL	-0.272 ± 1.1
VNSLFDWNRAKFLIR	-1.39 ± 0.79
VNTPDISGRHVSYFDFFVFY	6.337 ± 0.038
VNWIKGKGRLPPFHGIDCWW	-0.139 ± 0.63
VPELVSYFHLP	0.863 ± 0.43
VPGLESMR	0.57 ± 0.81
VPSFRYCTSYQTATSLR	0.17 ± 0.33
VQILSHFSADCKDDSVDQES	-1.06 ± 1.1
VQRQIDNSKLWYNYTICIPA	0.679 ± 0.62
VRALRQPAT	0.567 ± 0.27
VRCNFISVWSCDVESIVVES	5.096 ± 0.046
VRDIVYRYSGGRRS	inactive
VRFTAWICVYRYKEGWWRSL	-0.417 ± 0.24
VRGYRVGVWLRTGRVLVYRG	-0.282 ± 0.76
VRIKCYVKPYFFQKFLHMIG	-1.34 ± 0.53
VRKGCLTRACWRGCECMQGG	2.03 ± 0.12
VRLVMI	0.019 ± 1.1

Substance	amyloid nucleation score
VRMSQKDGKTPFQMFGHLEM	0.039 ± 0.21
VRSKVFALVGAFSMIKFRGC	inactive
VRSRKCLSVRLFSSVMGVSD	-0.88 ± 0.54
VRSSPTRVRERRSIILVLNC	0.594 ± 0.81
VRTLGGL	-0.653 ± 0.33
VRTWCAFYTVIRGWYRLLGS	0.231 ± 0.5
VRVGCTWS	0.618 ± 0.34
VSACQSESVSNVFDR	-0.152 ± 0.56
VSCCYRFSASNQIIVTPFSS	8.119 ± 0.026
VSCNSYMGVLMDDGRVETLE	0.486 ± 0.2
VSEQSMQCGVKFRHGTPSMV	0.607 ± 0.38
VSFKDTTGECGDLSYRKNAR	0.646 ± 0.38
VSGCRGVMLI	-0.816 ± 0.54
VSLYLYPVGMGMSE	1 ± 0.68
VSNFSRYHLSCYSMVRLLLD	-0.532 ± 0.36
VSNKDVLSQDMAKLIWW	0.81 ± 0.22
VSNTEMQTVHVPAGLLPSGF	-0.27 ± 1.1
VSPLNGSVYGGDEVFGINLG	-1.95 ± 0.75
VSQGRFKYERVVCVNFGKEL	0.201 ± 0.74
VSSFVKLIWQVALINWVRMG	inactive
VSTRILSCSNEFCYIIGAMV	2.59 ± 0.15
VSVDSVDAIFRK	0.489 ± 0.64
VSYGVWSCIRGL	-0.324 ± 1.1
VTALYGSSICMSRSDY	0.119 ± 0.47
VTEHRNHIKTWTTQSSLCDW	0.124 ± 0.37
